From the supplement of paper PMC10126150
± gives the standard deviation of the averaged measurements.

Tested on: ATP
Experiment: switch fluorescence ratio, 500 uM ATP over buffer (Cy3 cluster intensity, sum of 5 cycles each) (fold (ratio)); higher = stronger signal-on switching upon ATP binding; sequences stand for … in TCGTCGGCAGCGTCAGATGTGTATAAGAGACAGTTTTTTTTTTTTTTTTTTTTTTTTT…TC
Settings: aptamer strand: ATP DNA aptamer (quencher-CACCTGGGGGAGTATTGCGGAGGAAGG + anchor), 100 nM annealed; ATP concentration: 500 uM
Method in brief: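 Five buffer/ATP imaging cycles were run on Cy3-labelled switching-strand clusters on a modified Illumina MiSeq flow-cell, with NaOH stripping and re-annealing between cycles. In each cycle, clusters annealed to 100 nM quencher-labelled ATP aptamer were imaged in selection buffer, then after 15 min with 500 uM ATP at 22 °C. Per cluster, the fluorescence ratio is summed target-cycle over summed buffer-cycle Cy3 intensity, averaged per switch-domain sequence. Only clusters within 100-1000 RFU were kept.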
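Further: ATP exposure 15 min at 22 °C before imaging.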

| Sequence | switch fluorescence ratio |
| --- | --- |
| CTAATGACGT | 1.01 ± 0.015 |
| GAGGCCGCTA | 1.84 ± 0.043 |
| GGTGTAGCGA | 1.03 ± 0.026 |
| CAAATTATGG | 1.03 ± 0.01 |
| AAGAGGGGGA | 0.996 ± 0.042 |
| CGTTTATGTG | 0.9953 ± 0.0089 |
| GTGGTATGTC | 1.01 ± 0.07 |
| TAAAAGTGTT | 1.07 ± 0.059 |
| GGAGAGGGCG | 0.991 ± 0.066 |
| TGATATAGTG | 1.002 ± 0.01 |
| GGAGCAGCTG | 0.97336 ± 0.00053 |
| AAATCGGCTC | 0.989 ± 0.025 |
| GGCTAAGACT | 0.988 ± 0.024 |
| CCGGCTGGTG | 1.197 ± 0.0056 |
| ATCTGGGTAG | 1.01 ± 0.03 |
| TTTTAGCGGT | 0.974 ± 0.02 |
| ATATCAGCAT | 1.065 ± 0.005 |
| CGCGGGGTCC | 1.05 ± 0.048 |
| GTTGAAAAAA | 1.31 ± 0.73 |
| CTTGTAACTT | 1.01 ± 0.032 |
| TTTTGGCCAG | 0.991 ± 0.061 |
| CAAAGTAATT | 0.983 ± 0.033 |
| CCGGGAGTTG | 1.01 ± 0.024 |
| TTTGTGTTTT | 1.03 ± 0.044 |
| TGGAGGAGGA | 0.982 ± 0.025 |
| AGAAGCGGTT | 1.02 ± 0.025 |

| Sequence | switch fluorescence ratio |
| --- | --- |
| ATTACGTCCT | 1.03 ± 0.036 |
| GGAGGGGGAC | 3.13 ± 3.1 |
| GGGCTTGTAT | 1.03 ± 0.014 |
| CGGCGCGGAT | 1.02 ± 0.04 |
| TTTTTGGCAG | 0.971 ± 0.024 |
| AATCGCTCTT | 1.007 ± 0.0062 |
| CGAGGGCTAG | 1.04 ± 0.074 |
| GGACAAACGT | 1.2 ± 0.052 |
| CTTTGTTTTT | 0.9893 ± 0.0089 |
| TGTGGGGTGT | 1.039 ± 0.0096 |
| TTTGTTGCCT | 1.014 ± 0.0088 |
| GGATCTTGTG | 1.01 ± 0.021 |
| AGTCCGGAGT | 1.05 ± 0.023 |
| CTACACGAGA | 1.09 ± 0.019 |
| GTATGTGTGC | 0.96 ± 0.03 |
| CTCAGTATCT | 0.972 ± 0.041 |
| AGTGTGCTGG | 1.01 ± 0.043 |
| ATATTCGCTC | 1.12 ± 0.1 |
| ATGGTTGAGC | 1.03 ± 0.024 |
| GAGTACACGT | 0.9813 ± 0.0061 |
| GCTAATATTA | 1.03 ± 0.021 |
| AAGGTGGTTG | 0.969 ± 0.016 |
| TATCTGGCTT | 1.019 ± 0.0013 |
| TTCTTTCGTC | 0.979 ± 0.021 |
| GCCGTCTGTG | 0.9728 ± 0.0039 |
| GTGACCGGCG | 1.03 ± 0.053 |

| Sequence | switch fluorescence ratio |
| --- | --- |
| ATGATCTGCT | 0.946 ± 0.03 |
| GGGTATGTAG | 0.986 ± 0.024 |
| TTTTCAAGTG | 1 ± 0.029 |
| TTGTCACAGC | 1.03 ± 0.022 |
| AAGGGATGGC | 1.03 ± 0.043 |
| ACCAAACGTG | 1.23 ± 0.055 |
| CGGTGGTCAG | 1.01 ± 0.0076 |
| CTTTGAATTG | 0.987 ± 0.023 |
| AGGGACATGC | 1.0581 ± 0.00016 |
| GTCTATATTT | 1 ± 0.044 |
| ATGGGGAGTT | 0.972 ± 0.022 |
| GAGTGCTGTT | 1.024 ± 0.01 |
| ATCTTTCGAA | 1.03 ± 0.026 |
| TTGTAAGGAT | 1.02 ± 0.013 |
| GACGGATACA | 1.38 ± 0.091 |
| ATATCTTAGT | 1.017 ± 0.00089 |
| TGTTGAATTT | 0.958 ± 0.016 |
| TTGGGGATTC | 0.991 ± 0.02 |
| AAAAAAGGAC | 1.03 ± 0.044 |
| CGGCGTAGGG | 1.12 ± 0.15 |
| ACAATGAGTT | 0.985 ± 0.015 |
| CGAGCGGCTA | 1.016 ± 0.0013 |
| TGATTTAAGT | 0.992 ± 0.05 |
| AAGAAAACGA | 0.998 ± 0.011 |
| GGTAGGAACC | 1.01 ± 0.021 |
| CTTAACTTAG | 1.047 ± 0.0015 |

| Sequence | switch fluorescence ratio |
| --- | --- |
| GGGGGCGGAG | 0.992 ± 0.024 |
| GTTATTATTG | 1.02 ± 0.013 |
| AGGAGTTGAA | 0.978 ± 0.016 |
| GGGAGGGGTT | 1.01 ± 0.04 |
| CCCGTATGTT | 1.03 ± 0.018 |
| AGTGGGGGG | 1.0071 ± 0.001 |
| TTGGGTTCTC | 0.983 ± 0.037 |
| TCCAAGACGG | 1.02 ± 0.046 |
| CAAGAAATTA | 1 ± 0.011 |
| TGTATTGGTT | 0.99 ± 0.034 |
| TTGGCCGTAC | 1.03 ± 0.029 |
| TTTTTCATGG | 1 ± 0.031 |
| TTGGTCTGGT | 0.973 ± 0.024 |
| CGTAGGGGGA | 0.984 ± 0.015 |
| GAGTTAATTG | 1.01 ± 0.043 |
| CAGGTCTTAT | 1.01 ± 0.028 |
| TTTTGATTTT | 1.02 ± 0.041 |
| TCTTTCTTTC | 1.01 ± 0.03 |
| TTATATAGGT | 0.9738 ± 0.0054 |
| GGTATATATG | 0.995 ± 0.055 |
| CCTAACCTCT | 1.01 ± 0.032 |
| ACTTTGGGAT | 1.023 ± 0.0029 |
| AATTTGTAAG | 1.01 ± 0.023 |
| CGATTAAGGC | 1.003 ± 0.0026 |
| GATGGTGGGG | 0.977 ± 0.035 |
| ACCAGGGTGG | 1.03 ± 0.068 |

| Sequence | switch fluorescence ratio |
| --- | --- |
| CTACTGTGGG | 0.9651 ± 0.006 |
| ACCCTAGGGT | 0.994 ± 0.035 |
| CAAGGGTCCG | 0.991 ± 0.045 |
| AAAATGGCCA | 1.02 ± 0.083 |
| CGTTGTATGG | 1.01 ± 0.046 |
| TCTATGGTCT | 0.99 ± 0.011 |
| AGTTTATACT | 1.03 ± 0.0032 |
| TTAGGGTCGT | 1.01 ± 0.018 |
| GGAAGGAGGA | 0.973 ± 0.015 |
| AAGGTCCGCG | 1.08 ± 0.027 |
| TATACTTTAT | 1.02 ± 0.037 |
| ATTAGTTATT | 1.02 ± 0.015 |
| TGATAATATT | 0.992 ± 0.011 |
| AGCGTTCTGG | 1.04 ± 0.041 |
| CTTGAAGATG | 0.973 ± 0.065 |
| TGGTTTGTAT | 1 ± 0.029 |
| AGTCTGGGTA | 0.965 ± 0.016 |
| TGCTTATCGC | 0.995 ± 0.024 |
| AAAGGTTTCG | 0.989 ± 0.015 |
| TAGGTATTGT | 1.003 ± 0.0091 |
| TTTTATGGAT | 1.01 ± 0.013 |
| TTATCAAAGG | 0.986 ± 0.014 |
| ATAATATGTT | 0.9911 ± 0.004 |
| GGTAGGCTGC | 0.986 ± 0.018 |
| TAGGTGTCAT | 1.15 ± 0.32 |
| AAAAGGGTA | 0.957 ± 0.048 |

| Sequence | switch fluorescence ratio |
| --- | --- |
| CTTGCTTTTT | 0.948 ± 0.0035 |
| CAATTTAATA | 1.01 ± 0.019 |
| GGATTGTTTA | 1 ± 0.014 |
| CAAATGTCAG | 0.99 ± 0.028 |
| AATGTTCTGG | 0.99 ± 0.032 |
| ATAATTTTGG | 0.973 ± 0.017 |
| GCAGAGGAAC | 1.03 ± 0.012 |
| CGTTACTCCG | 1.5 ± 0.16 |
| ATTTTTCTTC | 1.035 ± 0.0046 |
| AGGGGGGTGG | 0.994 ± 0.052 |
| TCGTTTTTTA | 1.22 ± 0.45 |
| GACGTTAAAT | 1.01 ± 0.034 |
| TCGTTTTTGG | 1 ± 0.041 |
| TTGTGGAAAC | 1.02 ± 0.012 |
| ATGATGAGGT | 1 ± 0.017 |
| TGGGCAATGG | 1.833 ± 0.018 |
| GAAAGGGAAA | 1.03 ± 0.032 |
| TAATTTGGAA | 1.009 ± 0.0095 |
| TCTCGGTGAG | 0.99 ± 0.051 |
| TTTGATCACG | 1.02 ± 0.031 |
| GCGGGGGCGC | 0.985 ± 0.016 |
| GGCCATTTTT | 1.01 ± 0.03 |
| TTTATTTTCG | 1.02 ± 0.037 |
